Experimental data: article doi:10.1101/2024.07.19.604350

How the values were obtained:
[1] = molecular target: 9C2 (Vγ5Vδ1) γδ TCR/CD3 complex, full length (human) (UniProt B7Z8K6); assay: cryo-EM structure
[2] = molecular target: G115 (Vγ9Vδ2) γδ TCR/CD3 complex, full length (human) (UniProt A0JD36); assay: cryo-EM structure
Chain of UniProt A0JD36 (A0JD36 whole entry, looked up, stated change not applied, one chain of several): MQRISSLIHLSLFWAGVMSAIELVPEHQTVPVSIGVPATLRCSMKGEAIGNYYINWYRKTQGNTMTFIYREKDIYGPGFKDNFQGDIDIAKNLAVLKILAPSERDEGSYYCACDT

9C2 (Vγ5Vδ1) γδ TCR/CD3 complex, full length (from UniProt B7Z8K6;P0CF51;P07766;P09693;P04234;P20963)
stoichiometry N [1]: 2

OKT3 Fab
stoichiometry N [2]: 2
